Reference: publication PMC5379935, “Crystal structure and RNA-binding properties of an Hfq homolog from the deep-branching Aquificae: conservation of the lateral RNA-binding mode” (Acta Crystallographica. Section D, Structural Biology, 2016)

Key:
Aae Hfq [1] = molecular target: T1, Aae Hfq (Aquifex aeolicus, UniProt O66512 1-80); assay: fluorescence polarization; no significant binding detected; FP: 50 mM Tris pH 8.0, 500 mM NaCl, 5 nM FAM-RNA, +/- 10 mM MgCl2, 45 min, room temperature; settings: protein: recombinant; tags: 6xHis removed by thrombin; residual N-terminal G-2 S-1 H0; chain copies: 6; label: FAM; single strand
T1 sequence: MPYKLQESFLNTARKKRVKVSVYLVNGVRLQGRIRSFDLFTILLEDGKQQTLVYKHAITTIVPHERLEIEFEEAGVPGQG

Aae Hfq [2] = molecular target: T1, Aae Hfq; assay: fluorescence polarization; 10 mM Mg2+; per hexamer; 4-parameter fit, Hill 2.4; FP: 50 mM Tris pH 8.0, 500 mM NaCl, 5 nM FAM-RNA, +/- 10 mM MgCl2, 45 min, room temperature; settings: protein: recombinant; tags: 6xHis removed by thrombin; residual N-terminal G-2 S-1 H0; chain copies: 6; label: 5'-FAM; single strand
Aae Hfq [3] = molecular target: T1, Aae Hfq; assay: fluorescence polarization; no Mg2+; per hexamer; 4-parameter fit, Hill 2.2; FP: 50 mM Tris pH 8.0, 500 mM NaCl, 5 nM FAM-RNA, +/- 10 mM MgCl2, 45 min, room temperature; settings: protein: recombinant; tags: 6xHis removed by thrombin; residual N-terminal G-2 S-1 H0; chain copies: 6; label: 5'-FAM; single strand
[4] = molecular target: the molecule itself; assay: SEC-MALS; Superdex 200 Increase 10/300 GL, 50 mM Tris pH 8.0, 200 mM NaCl; Aae Hfq alone; monodisperse peak
[5] = molecular target: the molecule itself; assay: cross-linking; formaldehyde, indirect (vapor-diffusion) method, 0.6 mg/ml Hfq in 25 mM HEPES pH 8.0, 500 mM NaCl, 310 K, 40 min; read out by MALDI-TOF MS
Aae Hfq [6] = molecular target: T1, Aae Hfq; assay: fluorescence polarization; no Mg2+; per hexamer; 4-parameter fit, Hill 1.3; FP: 50 mM Tris pH 8.0, 500 mM NaCl, 5 nM FAM-RNA, +/- 10 mM MgCl2, 45 min, room temperature; settings: protein: recombinant; tags: 6xHis removed by thrombin; residual N-terminal G-2 S-1 H0; chain copies: 6; label: 5'-FAM; single strand
Aae Hfq [7] = molecular target: T1, Aae Hfq; assay: fluorescence polarization; 10 mM Mg2+; per hexamer; 4-parameter fit, Hill 1.7; FP: 50 mM Tris pH 8.0, 500 mM NaCl, 5 nM FAM-RNA, +/- 10 mM MgCl2, 45 min, room temperature; settings: protein: recombinant; tags: 6xHis removed by thrombin; residual N-terminal G-2 S-1 H0; chain copies: 6; label: 5'-FAM; single strand

CCCCCC (ssRNA) [FAM-C6]
binding result (Aae Hfq [1]): no binding

AAAAAA (ssRNA) [FAM-A6]
binding result (Aae Hfq [1]): no binding

AAAAAAAAAAAAAAAAAA (ssRNA) [FAM-A18]
Kd (Aae Hfq [2]): 0.0095 µM | Kd (Aae Hfq [3]): 0.0174 µM

B1: Aquifex aeolicus Hfq (working construct after proteolytic removal of the 6xHis tag, 83 amino acids) (natural protein)
chain: GSHMPYKLQESFLNTARKKRVKVSVYLVNGVRLQGRIRSFDLFTILLEDGKQQTLVYKHAITTIVPHERLEIEFEEAGVPGQG
notes: three plasmid-derived residues (G-2, S-1, H0) that remain at the N-terminus after thrombin cleavage of the 6xHis tag; 83 residues, 9482.9 Da after tag removal (cleaved at G-2); Hexameric ring; two rings stack into a dodecamer in the P1 crystal, on cross-linking, and in solution with A18 RNA; also called Aae Hfq; (Hfq)6; not shown: His6, N-terminal, cleaved
stoichiometry N [4]: 6 | stoichiometry N [5]: 12

UUUUUU (ssRNA) [FAM-U6]
Kd (Aae Hfq [6]): 0.0213 µM | Kd (Aae Hfq [7]): 0.0021 µM
